# Assay results as given in the nanobody polyreactivity screen of Harvey et al. (2022).
# Test: yeast display, Sf9 membrane polyspecificity reagent, FACS + sequencing; frameworks hold sequencing errors
# Summary of the method: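 Genes from sorted yeast were amplified by colony PCR, read by MiSeq 2 × 250 sequencing and filtered on CDR length. These cells carried a synthetic nanobody library in Saccharomyces cerevisiae BJ5465 and were sorted by FACS into low and high (top ~1%) gates on anti-HA and streptavidin fluorescence. Polyreactivity is labelled according to the gate of origin.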
row,Sequence,polyreactivity (PSR sort gate)
1,QVQLVESGGGLVQAGGSLRLSCAASGSTLVTYTMGWYRQAPGKERELVASISWRGGSTYYADSVKGRFTISRDNAKNTVYLQMNSLKPEDTAVYYCNAVYYLWDYDYWGQGTQVTVSS,low polyreactivity
2,QVQLVESGGGLVQAGGSLRLSCAASGSTLYAYAVGWYRQAPGKERELVAAIRTGGSTYYADSVKGRFTISRDNAKNTVYLQMNRLIPEDTAVYYCAADHGYQYGYWGQGTQVTVSS,low polyreactivity
3,QVQLVESGGGLVQAGGSLRLSCAASGSTLYRNAMGWYRQAPGKEREFVAAISWSGGSTYYADSVKGRFTISRDNAKNTVYLQMNSLKPEDTAVYYCNARGPTVYETHNYWGQGTQVTVSS,low polyreactivity
4,QVQLVESGGGLVQAGGSLRLSCAASGSTLYRYAMGWYRQAPGKERELVAAISSAGSTHYADSVKGRFTISRDNAKNNVYLQMKSLKPEDTAVYYCNAKGYLHRSRYDYWGQGTQVTVSS,high polyreactivity
5,QVQLVESGGGLVQAGGSLRLSCAASGSTLYSYAMGWYRQAPGKERELVAAIRRDSGRTYYADSVKGRFTISRDNAKNTVYLQMNSLKPEDTAVYYCAVRKQYSGRYYRAYDYWGQGTQVTVSS,high polyreactivity
6,QVQLVESGGGLVQAGGSLRLSCAASGSTMGRYAMGWYRQAPGKERELVASITWSDDSTYYADSVKGRFTISRDNAKNTVYLQMNSLKPEDTAVYYCAAAGNLYTYRFYYWGQGTQVTVSS,low polyreactivity
7,QVQLVESGGGLVQAGGSLRLSCAASGSTMLDYAMGWYRQAPGKERELVAAISWSGGSTRYADSVKGRFTISRDNAKNTVFLQMNSLKPEDTAVYYCAATGFSYRYFQTRDYWGQGTQVTVSS,high polyreactivity
8,QVQLVESGGGLVQAGGSLRLSCAASGSTRYWYAMGWYRQAPGKEREFFAGISIGGRTNYADSVKGRFTISRDNAKNTVYLQMNSLKPEDTAVYYCNAENTYVGSRYRPYNYWGQGTLVTVSS,low polyreactivity
9,QVQLVESGGGLVQAGGSLRLSCAASGSTSAWYAMGWYRQAPGKERQLVATISSRGGSTYYADSVKGRFTISRDNAKNTVYLQMNSLKPEDTAVYYCAARIGATYWVDWTHRAYDYWGQGTQVTVSS,high polyreactivity
10,QVQLVESGGGLVQAGGSLRLSCAASGSTSCIYAMGCYRQAPGKERELVAAISGSGVSTYYADSVKGRFTISRDNAKNTVYLQMNSLKPEDTAVYYCAAGYYGNGVFEYDYWGQGTQVTVSS,low polyreactivity
11,QVQLVESGGGLVQAGGSLRLSCAASGSTSCSNAMGWSRQAPGKERELVAAITTGASTYYADSVKGRFTISRDNAKNTVYLQMNSLKPEDTAVYYCAADPWVLWSYYYWGQGTQVTVSS,low polyreactivity
12,QVQLVESGGGLVQAGGSLRLSCAASGSTSDINAMGWYRQAPGKERELVAVITDSSNTDYADSVKGRFTISRDNAKNTVYLQMNSLKPEDTAVYYCAADRDEPDPYDYWGQGTQVTVSS,low polyreactivity
13,QVQLVESGGGLVQAGGSLRLSCAASGSTSGIYAMGWYRQAPGKERELVAAIDTSGGSTYADSVKGRFTISRDNAKNTVYLQMNSLKPEDTAVYYCAKPFSSNSWSHGYWGQGTQVTVSS,low polyreactivity
14,QVQLVESGGGLVQAGGSLRLSCAASGSTSGIYAMGWYRQAPGKERELVARINSGGSTYYADSVKGRFTISRDNAKNTVYLQMNSLKPEDTAVYYCNRVPNKYGRPIDSRWRGDYWGQGTQVTVSS,low polyreactivity
15,QVQLVESGGGLVQAGGSLRLSCAASGSTSGKNAMGWYRQAPGKERELVAVITYSGSRTYYADSVKGRFTISRDNAKNTVYLQMNSLKPEDTAVYYCAAVGGGVSFRGNYWGQGTQVTVSS,high polyreactivity
16,QVQLVESGGGLVQAGGSLRLSCAASGSTSGRNVMGWYIQAPGKERELVAAISSRGGSTYYADSVKGRFTISRDNAKNTVYLQMNSLKPEDTAVYYCAARYGAYSGYDYWGQGTQVTVSS,high polyreactivity
17,QVQLVESGGGLVQAGGSLRLSCAASGSTSHQYAMGWYRQAPGKERELVAAISSRAGSTYYADSVKGRFTISRDNAKNTVYLQMNSLKPEDTAFYYCAADADSWKWGYDYWGQGTQVTVSS,low polyreactivity
